Assays:
[1] = target: CD8 binding–deficient HLA.A2 (DT227/228KA) refolded with the 9V NY-ESO-1 peptide (A2^ΔCD8/9V)
[2] = target: HLA.A2-H12 / beta-2-microglobulin refolded with the 9V NY-ESO-1 peptide (A2/9V)
[3] = target: HLA.A2-H12 / beta-2-microglobulin refolded with the 9V NY-ESO-1 peptide (A2/9V); remark: listed apart in the source

## c58c61 1G4hi TCR
[1]
  EC50: antigen density on the SLB at half-maximum T cell activation (Fura-2 calcium response); receptor by CRISPR-Cas9 knock-in (antigen molecules per μm^2): 0.0736
[2]
  EC50: antigen density on the SLB at half-maximum T cell activation (Fura-2 calcium response); receptor by CRISPR-Cas9 knock-in (antigen molecules per μm^2): 0.04

## 1G4 TCR
[3]
  specific lysis of HLA.A2-expressing K562 cells pulsed with 0.1 nM 9V peptide after 6, 8 and 24 hours of coculture at 1:1 (luciferase); 1G4 by CRISPR-Cas9: 65 % killing
[1]
  EC50: antigen density on the SLB at half-maximum T cell activation (Fura-2 calcium response); receptor by CRISPR-Cas9 knock-in (antigen molecules per μm^2): 0.0181
[2]
  EC50: antigen density on the SLB at half-maximum T cell activation (Fura-2 calcium response); receptor by CRISPR-Cas9 knock-in (antigen molecules per μm^2): 0.00703

Source: article PMC11373591
